# Laboratory results reported in the nanobody polyreactivity screen of Harvey et al. (2022).
# Test: yeast display, Sf9 membrane polyspecificity reagent, FACS + sequencing; frameworks hold sequencing errors
# Outline: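 Sorting gates, low and high (top ~1%), were placed on anti-HA fluorescence to track expression and on streptavidin fluorescence to track reagent binding. A clone's polyreactivity label is taken from the gate it came out of. The reagent was 10% biotinylated, detergent-solubilized Sf9 membrane, applied for 1 hour at 4 °C to galactose-induced yeast display cells.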
row,Sequence,polyreactivity (PSR sort gate)
1,QVQLVESGGGLVQAGGSLRLSCAASGIIFRTNAMGWYRQAPGKERDFVAAISAGGTRTYYADSVKGRFTISRDNAKNTVYLQMNSLKPEDTAVYYCAARYPEYETEDDYWGQGTQVTVSS,high polyreactivity
2,QVQLVESGGGLVQAGGSLRLSCAASGIIFRTYAMGWYRQAPGKERELVAAINSDGSTYYADSVKGRFTISRDNAKNTVYLQMNSLKPEDTAVYYCAAVVWRIHAYYWAVDGWYYYWGQGTQVTVSS,high polyreactivity
3,QVQLVESGGGLVQAGGSLRLSCAASGIIFRVNTIGWDRQAPGKEREMVARITGAGNTYYADSVNGRCTISRDNAKNSVYLQMNSLKPKDTAVYYCAVREFDKRRVIYYYWGQGTQVTVLS,high polyreactivity
4,QVQLVESGGGLVQAGGSLRLSCAASGIIFRVYAMGWYRQAPGKERELVAAITKGGGRTYYADSVKGRFTISRDNAKNTVYLQMNSLKPEDTAVYYCAARSSSSFEYWGQGTQVTVSS,high polyreactivity
5,QVQLVESGGGLVQAGGSLRLSCAASGIIFRVYAMGWYRQAPGKERELVATITWSGGSTFYADSVKGRFTISRDNAKNTVYLQMNSLKPEDTAVYYCAKRGYVRSGLGRPYADDYWGQGTQVTVSS,low polyreactivity
6,QVQLVESGGGLVQAGGSLRLSCAASGIIFRVYTMGWYRQAPGKERELVATIRTSGDSTYYADSVKGRFTISRDNAKNTVYLQMNSLKPEDTAVYYCAKRRNYWHYYWGQGTQVTVSS,high polyreactivity
7,QVQLVESGGGLVQAGGSLRLSCAASGIIFRYYAMGWYRQAPGKERELVAAISSSGVSTYYADSVKGRFTISRDNAKNNVYLQMNSLKPEDTAVYYCAAVTTWRMDYWGQGTQVNVSS,high polyreactivity
8,QVQLVESGGGLVQAGGSLRLSCAASGIIFRYYTMGWYRQAPGKERELVAAITQSSGRTYYADSVKGRFTISRDNAKNTVYLQMNCLIPEDTAVFYCNVRPLRSYRAVDYWGQGTQVTVSS,high polyreactivity
9,QVQLVESGGGLVQAGGSLRLSCAASGIIFSDYAMGWYRQAPGKERELVAAISRNGGSTYYADSVKGRFTISRDNAKNTVYLQMNSLKPEDTAVYYCAATRRYRYNWGQGTQVTVSS,high polyreactivity
10,QVQLVESGGGLVQAGGSLRLSCAASGIIFSDYAMGWYRQAPGKERELVAAITGGGSTYYADSVKGRFTISPDNAQNTVYLQMNSLKPEDTSVYYCNTDAWHETPVSGYSWGQCTQVTVSS,low polyreactivity
11,QVQLVESGGGLVQAGGSLRLSCAASGIIFSFNAMGWYRQAPGKERELVAAITWRDGSTYYADSVKGRFTISRDNAKNTVYLQMNSLKPEDTAVYYCNADLLDISSYDGMDYWGQGTQVTVSS,low polyreactivity
12,QVQLVESGGGLVQAGGSLRLSCAASGIIFSIYALGWYRPAAGKERELVAAITYSGGRTYYADSVKGRFTISRDNAKNSVYLQMNSLKPEDTAVYYCAAVGYGEYYWGQGTQVTVSS,high polyreactivity
13,QVQLVESGGGLVQAGGSLRLSCAASGIIFSIYAMGLYRQAPGKERELVAVISRSSGSTYYADSVKGRFTISRYNAKNTVYLQMNSLKPEDTAVYYCAARKNRAYGYWGQGTQVTVSS,high polyreactivity
14,QVQLVESGGGLVQAGGSLRLSCAASGIIFSQYAMGWYRQAPGKERELVASISSGGRTNYADSVKGRFTISRDNAKNTVYLQMNSLKPEDTAVYYCATRYRYKRYAASVQYDYWGQGTQVTVSS,high polyreactivity
15,QVQLVESGGGLVQAGGSLRLSCAASGIIFSSYAMGWYRQAPGKERELVADISYTGGSTYYADSVKGRFTISRDNAKNTVYLQMNSLKPEDTAVYYSAAGVYLHYSVDYWGQGTQVTVSS,low polyreactivity
16,QVQLVESGGGLVQAGGSLRLSCAASGIIFSSYVMGWYRQAPGKERELVAAISKSGARTSYADSVKGRFTISRDNAKNTVYLQMNSLKPEDTAVYYCAATYLLERPTSKHPRYDYWGQGTQVTVSS,low polyreactivity
17,QVQLVESGGGLVQAGGSLRLSCAASGIIFSSYVMGWYRQAPGKERELVAAISSRGVSTYYADSVKGRFTISRDNAKNTVYLQMNSLKPEDTAVYYCAGVGPSYVRYYYWGQGTQVTVSS,high polyreactivity
18,QVQLVESGGGLVQAGGSLRLSCAASGIIFSTYAMGWYRQAPGKERELVAAISDGGASTYYADSVKGRFTISRDNAKNTVYLQMNSLKPEDTAVYFCAAVQTAGQFRYGYWGQGTQVTVSS,high polyreactivity
19,QVQLVESGGGLVQAGGSLRLSCAASGIIFSTYAMGWYRQAPGKERELVAAISVSGGRTYYADSVKGRFTISRDNAKNTVYLQMNSLKREDTAVYSCNALSSTEYDYWGQGTQVTVSS,high polyreactivity
20,QVQLVESGGGLVQAGGSLRLSCAASGIIFSWYSMGWYIEAPGKERELVAAISWSGGRTYYSDSVKGRFTISRDNAKNNVYLQMNSLKPEDTAVYYCAAERNRYSHWEARYYWGQGTQVTVSS,high polyreactivity
21,QVQLVESGGGLVQAGGSLRLSCAASGIIFSYYAMGWYRPEHGKEREFVAVITTGGGSTSYADSVKGRFTISRDNAKNTVYLQMNSLKPEDTAVYYCTAGHLGLDGIQDGVDYWGQGTQVTVSS,low polyreactivity
22,QVQLVESGGGLVQAGGSLRLSCAASGIIFTGYAMGWYRQAPGKERELVAAISESGGSTYYADSVKGRFTISRDNAKNTVYLQMNSLKPEDTAVDYCAVDALSITYGYWGQGTQVTVSS,low polyreactivity

row,Sequence,polyreactivity (PSR sort gate)
1,QVQLVESGGGLVQAGGSLRLSCAASGIIFTINAMGWYRQAPGKERELVAAISGRGARTYYADSVKGRFTISRDNAKNTVYLQMNSLKPEDTAVYYCNAANSRLHGSDYWGQGTQVTVSS,high polyreactivity
2,QVQLVESGGGLVQAGGSLRLSCAASGIIFTNNAIGWYRQAPGKERELGAAITSGGRTYYADSVKGRFTISRDNAKNTVSLQMNSLKPEDTAVYYCNARYYYGGWRVGYWGQGTQLTVSS,high polyreactivity
3,QVQLVESGGGLVQAGGSLRLSCAASGIIFTPYTMGWYRQAPGKERELVAAITGSGGSTYYADSVKGRFTISRDNAKNTVYLQMNSLKPEDTAVYYCAAYKQYRFYRYDYWGQGTQVTVSS,high polyreactivity
4,QVQLVESGGGLVQAGGSLRLSCAASGIIFTRYAMGWYRQAPGKERELVAAITTSGGRTYYADSVKGRFTISRDNAKNTVYLQMNSLKPEDTAVYYCAVSGHARYDYWGQGTQVTVSS,high polyreactivity
5,QVQLVESGGGLVQAGGSLRLSCAASGIIFTRYVMGWYRQAPGKQRELVAVISRRGGTTYYADSVKGRFTISRDNAKNTVYLQMNSLKPEVTAVYYCNTDGYRYPGSGINYYYWGQGTQVTVSS,high polyreactivity
6,QVQLVESGGGLVQAGGSLRLSCAASGIIFTSNTMGWYRQAPGKEREFVASINWNGSSTYADSVKGRFTISRDNAKNTVFLQMNSLKPEDTAVYDCNADYYRNSVQFSLYDYWGHGTQVTVSS,low polyreactivity
7,QVQLVESGGGLVQAGGSLRLSCAASGIIFTSYVMGWYRQAPGKERELVAAISSDGGSTYYADSVKGRFTISRDNAKNTVYLQMNSLKPEDTAVYYCAVDWLEIGDTGFDYWGQGTQVTVSS,low polyreactivity
8,QVQLVESGGGLVQAGGSLRLSCAASGIIFTVYTMGWYRQAPGKERELVAAITTNGGSTYYADSVKGRFTISRDNAKNTVYLQMNSLKPEDTAVYYCAADYPYKPITYDYWGQGTQVTVSS,low polyreactivity
9,QVQLVESGGGLVQAGGSLRLSCAASGIIFTYAMGWYRQAPGKERELVAAIDWRGGRTYYADTVKGRFTISRDNAKNTVYLEMNSLKPEDTAVYYCAARLPGGTYYWGQGTQVTVSS,high polyreactivity
10,QVQLVESGGGLVQAGGSLRLSCAASGIIFTYNAMGWYRQPPGKERELVAAISASGSSTYYADSVKGRFTISLDNAKNTVYLQMNSLKPEDTAVYYCAARTRRGLARYDYWGQGTQGTVSS,high polyreactivity
11,QVQLVESGGGLVQAGGSLRLSCAASGIIFTYYAMGWYIQAPGKERELVAGITWSGTTTYYADSVKGRFTISRDNAKKTVYLQMNSLKPEDPAVYYCNALGYYEHDYWGQGTQVTVSS,low polyreactivity
12,QVQLVESGGGLVQAGGSLRLSCAASGIIFTYYAMGWYRQAPGKEREFVAAISNGGSNTRYADSVKGRFTISRDNAKNTVYLQMNSLKPEDTAVYYCAARAYQHYNWGQGTQVTVSS,high polyreactivity
13,QVQLVESGGGLVQAGGSLRLSCAASGIIFTYYAMGWYRQAPGKEREIVAAISWSGGNTYYADSVKGRFTISRDHAKNTVYLQMNSLKPEDTAVYYCARVQYWFYKPMYYWGQGTQVTVSS,high polyreactivity
14,QVQLVESGGGLVQAGGSLRLSCAASGIIFVPNTMGWYRQAPGKERELVAAIRWSGGTTYYADSVKGRFTISRDNAKNTVYLQMNSLKPEDTAVYYCAARYGSRSSYLAYYYWGQGTQVTVSS,high polyreactivity
15,QVQLVESGGGLVQAGGSLRLSCAASGIIFVRNAMGWYRQAPGKERELVAAITWRGSTYYADSVKGRFTISRDNAKNTVYLQMNSLKPEDTAVYYCAAQWLYLEYDYWGQGTQVTVSS,high polyreactivity
16,QVQLVESGGGLVQAGGSLRLSCAASGIIFVRYAMGWYRQAPGKERELVAAITWRGSTYYADSVKGRFTISRDNAKNTVYLQMNSLKPEDTAVYYCAAVKPHYTSFRDYYCGQGTQVTVSS,high polyreactivity
17,QVQLVESGGGLVQAGGSLRLSCAASGIIFVSYAMGWYRQAPGKEWELVADISSGGRTYYADSVKGRFTISRDNAKNTVYLPMNSLKPEDTAVYYCAKVKRDLQYPGLPEVLNREYWGQGTQVTVSS,high polyreactivity
18,QVQLVESGGGLVQAGGSLRLSCAASGIIFVYNAMGWYRQAPGKERELVAGISFIGDSTYYADSVKGRFTISRDNAKNTVYLQMNSLKPEDTAVYYCAADYYLPYWFFVGYDYWGQGTQVTVSS,low polyreactivity
19,QVQLVESGGGLVQAGGSLRLSCAASGIIFVYYDMGWYRQAPGKERELVASISRGGSTNYADSVKGRFTISRDNAKNTVYLQMNSLKPEDTAVYYCAAGSYSILVHLVRYYYWGQGTQVTVSS,high polyreactivity
20,QVQLVESGGGLVQAGGSLRLSCAASGIIFVYYTLGWYRQAPGKERELVAAITSGGSTYYADSVKGRFTISRDNAKNTVYLQMNSLKPEDTAVYYCAARTYRQPYYILDYYWGQGTQVTVSS,high polyreactivity
21,QVQLVESGGGLVQAGGSLRLSCAASGIIFVYYVMGWYRQAPGKERELVAAISWDGGSTYYADSVKGRFTISRDNAKNTVYLQMNSLKPEDTAVYYCAARYKGNPDRYGYWGLGTQVTVSS,high polyreactivity
